Data published in the supplement of paper PMC9170038.

Tested on: MS2 coat protein
Test: apparent KD of MS2 coat protein; higher = weaker reporter binding
Details: Eterna round: R107
Experimental: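 RNA-MaP round R107: designed RNA switches with theophylline, tryptophan, arginine or FMN aptamers are transcribed on-chip within common flanks. They are titrated with SNAP-549-labelled MS2 coat protein in RNA-MaP buffer (100 mM Tris pH 7.5, 80 mM KCl, 4 mM MgCl2), without ligand or with the indicated ligand. Median apparent KD per design.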

[1] = input ligand: theophylline 20 uM
[2] = input ligand: theophylline 2 mM
[3] = input ligand: tryptophan 2.4 mM

| Sequence | apparent KD of MS2 coat protein (input ligand: arginine 13.2 mM) [nM] | apparent KD of MS2 coat protein [1] [nM] | apparent KD of MS2 coat protein [2] [nM] | apparent KD of MS2 coat protein [3] [nM] | apparent KD of MS2 coat protein (input ligand: none) [nM] |
| --- | --- | --- | --- | --- | --- |
| GGUUACUCUACGGCCGCCACUGGGCAUGUAAAUAACAUGAGGAUCACCCAUGUGGAAUAAAAUUACAGGACCGGGUAGUGUAACC [Tryptophan B 22] | 105 | 270 | 352 |  |  |
| UUAGCACAUGAGGAUCACCCAUGUCUCGAUACCAGAUAAGUUCCGAUCCCUUGGCAGCGACAAGCUUGCAAACUGCGACUAUUCU [theeternabot_sameState_MS2_Theo_A_42] | 22.2 | 32.2 |  | 24.8 |  |
| GCCGGGCCCUCGGCCGCCACUGAGAGAGUCGUGUGAACAUGAGGAUCACCCAUGUAAUAUAUAUACAGGACCGGGAGGGCCCGGC [4.W] | 11.9 | 21.8 | 13.9 | 11.9 | 13.3 |
| AUUCUUUACUGAAGGAGCGUCAUUCUUACAUGAGGAUCACCCAUGUUUAUUCUUUAUGAUUGACAGGUAGGUCGCAGAUUUUUUA [#11 Same State - Arginine B] | 19.5 | 24.4 | 19 | 17 | 17.8 |
| UUCUUUAAGUCGGCCGCCACUGAAACAUGAGGAUCACCCAUGUAUAUUUGUGUAAAGGUGGAUUACAGGACCGGGACUAUAGUAA [JR_Nu23_ExcTryptoB_Sub024] | 12.1 | 13.6 | 11.7 |  |  |
| AUGGCGUUGGUGUAGCUGUGAAAUGGCGAUACCAGCGUGGAAACACGCCCUUGGCAGCGCCAAAACAUGAGGAUCACCCAUGUUA [Hradec] | 16.6 | 45.1 |  | 18.1 |  |
| CUUAUACAUGAGGAUCACCCAUGUGGUGAUACCAGCCACGAUCAAGGCCCUUGGCAGCACAAAGGGAAUAAUAUGAUUACAAAAC [theeternabot_sameState_MS2_Theo_A_6] | 117 | 566 |  | 489 |  |
| GGUAACUCUACGGCCGCCACUGAACAUGAGGAUCACCCAUGUAAUGUUCAGAUUUUUUUUUUUUACAGGACCGGGUAGUGUUACC [Tryptophan B 4] | 107 | 276 | 275 |  |  |
| UUAUUUAUAAUGGAUACCAGUAUAAUGGCCGCAAAUCCUGACAUGAGGAUCACCCAUGUAUGCCCUUGGCAGCUGUUAUGGGUUU [XTheo B #23] | 34.7 | 51.2 |  | 38.7 |  |
| ACGAUAGCACCUGAGGAUCACCCAGGUGAUACCAGCCUGGAAACAGGCCCUUGGCAGCACCUAAAAUAAAGGUAACUAUCGAAUA [TheoAX6 #MicroSwitchBubble #AlternativeMS2] | 57.3 | 251 | 105 | 48.6 | 50.6 |
| UCGCUCUGGGUGAAUCCCAGAGAUGUGGAAGGAGCGGAGGAAACUCCAGGUAGGUCGCCAUCGAACAUGAGGAUCACCCAUGUAC [Same State - Arginine A (Freestyle 28)] | 35.6 | 60.7 | 66.4 | 46.4 | 56.8 |
| CCAUAGCUAGGAAGGAGCGCAUACUUCACAUGAGGAUCACCCAUGUCGAGACGUGAGUCAGUGCAGGUAGGUCGCCUAGCUAUGG [Same State - Arginine B (Freestyle 29)] | 18.1 | 24.2 | 25.5 | 20.6 | 18.6 |
| UGUAUGGACUGAAGGAGCGGGUUGAUAAUCUGAGGAUCACCCAGGUAAAAGGCGAAAGCCACCCAGGUAGGUCGCAGUCCAUACU | 23.8 | 38.9 | 41.8 | 36.4 | 34 |
| CGCCACAUGAGGAUCACCCAUGUAAUGGCGCGAGGACCGGUACGGCCGCCACUCGCCUGGCAGUGAGCGCAUGCGGCCUGGGUAU [Exclusion Tryp A GF9] | 12.2 | 13.3 | 14.4 | 13.3 | 10.6 |
| GGCCGGUGCGCUUUGAAGCGACGGCGUGAUACCAGAUGUAAGAGCGUCCCUUGGCAGCACGUUUACAUGAGGAUCACCCAUGUCU [Zaveusxe] | 53.2 | 256 |  | 220 |  |
| CGGUUUGUGAUGGAUACCAGCAGAGAAAAUGUUUAUCCUGACAUGAGGAUCACCCAUGUGUGCCCUUGGCAGCUGUUGUGGGCUG [8.X] | 57.3 | 85.7 |  | 51.1 |  |
| GUAGCUGAGUGUGAUACCAGAAACGACGUCCUUUAUCAUAACAUGAGGAUCACCCAUGUCUUCCCUUGGCAGCACUUUUCGGUCU [theeternabot_exclusion_MS2_Theo_B_24] | 29.6 | 53.6 |  | 34.7 |  |
